Where “and” joins values, the source holds several entries; their conditions need not be identical. Equal entries are not always repeated.

Data set [1] has as its target CPC I1-190 SB dloop del110-206;Borealin (UniProt Q9NQS7+O15392+Q53HL2). Nature of the data set: EMSA. The conditions noted are these: histone H3 T3ph (native ligation, H3T32C); EMSA: 20 nM NCP, 10 mM Tris pH 7.5, 250 mM NaCl, 1 mM MgCl2, 1 mM DTT, 1% glycerol, 0.1 mg/ml BSA, 1 h on ice; gel at 4 C. SPR buffer not in the material.
In data set [2] the target is H3T3 phosphorylated nucleosome core particle (H3T3ph NCP) (UniProt P62805). Nature of the data set: mass photometry; CPC-NCP complexes diluted to 20 nM (legend of Fig. EV1D: 50 nM) in 20 mM HEPES pH 8.0, 50 mM NaCl, 1 mM EDTA, 1 mM DTT; Refeyn TwoMP; Gaussian fitting of mass populations.
Data set [3] has the same target. Nature of the data set: native gel or EMSA; 20 nM H3T3ph NCPs wrapped with centromeric α-satellite DNA; CPC 7.8 nM to 2 µM, 1 h on ice; 10 mM Tris pH 7.5, 250 mM NaCl, 1 mM MgCl2, 1 mM DTT, 1% glycerol, 0.1 mg/ml BSA; gel at 4 °C; unbound NCP band quantified, specific binding with Hill slope.
Data set [4] concerns the target CPC I1-190 6A SB dloop R65A;R66A;K67A;K68A;R69A;R70A;internal_change (UniProt Q9NQS7+O15392+Q53HL2). Nature of the data set: EMSA. To be noted: histone H3 T3ph; EMSA: 20 nM NCP, 10 mM Tris pH 7.5, 250 mM NaCl, 1 mM MgCl2, 1 mM DTT, 1% glycerol, 0.1 mg/ml BSA, 1 h on ice; gel at 4 C. SPR buffer not in the material. On the technique in general: In EMSA bound probe runs differently from free probe, usually more slowly.

Data set [5] deals with CPC I1-190 6A SB R65A;R66A;K67A;K68A;R69A;R70A;INCENP (UniProt Q9NQS7+O15392+Q53HL2). In words: EMSA. The conditions noted are these: histone H3 T3ph; EMSA: 20 nM NCP, 10 mM Tris pH 7.5, 250 mM NaCl, 1 mM MgCl2, 1 mM DTT, 1% glycerol, 0.1 mg/ml BSA, 1 h on ice; gel at 4 C. SPR buffer not in the material.

In data set [1], “ACAGGATGTATATATGTGACACGTGCCTGGAGACTAGGGAGTAATCCCCTTGGCGGTTAAAACGCGGGGGACAGCGCGTACGTGCGTTTAAGCGGTGCTAGAGCTGTCTACGACCAATTGAGCGGCCTCGGCACCGGGATTCTCCAG (double strand) [H3T3ph NCP, Widom 601 147 bp]” came in with a fold decrease in binding affinity vs P1 (fold decrease in affinity vs P1) of 12.

In the case of “CPC_(I1-58SB) (containing INCENP 1-58, full-length Survivin and full-length Borealin) (from UniProt Q53HL2 1-280; O15392 1-142; Q9NQS7 1-58) (complex)”, the stoichiometry N in data set [2] is 2 CPC per NCP and 1 CPC per NCP.

For the substance “CPC_(I1-58SBS266D) (containing INCENP 1-58, full-length Survivin and full-length Borealin dimer breaking mutant, S266D) (from UniProt Q53HL2 1-280; O15392 1-142; Q9NQS7 1-58) (complex)”, the stoichiometry N in data set [2] is 1 CPC per NCP and 2 CPC per NCP.

For the substance “CPC_(I1-190 6ASB) (INCENP with RRKKRR mutated to AAAAAA) (from UniProt Q53HL2 1-280; O15392 1-142; Q9NQS7 1-190) (complex)”, the times weaker binding against CPC (I1-190SB) in data set [3] came out at 1.5 times. For “CPC_(I1-190SB) (CPC containing INCENP 1-190, full-length Survivin and full-length Borealin) (from UniProt Q53HL2 1-280; O15392 1-142; Q9NQS7 1-190) (complex)”, the stoichiometry N in data set [2] was determined as 2 CPC per NCP.

H3T3ph NCP, alpha-satellite 147 bp showed a binding signal in data set [4] of 13 fold. This substance returned a binding signal (fold weaker vs P1) in data set [5] of 1.5.

For orientation: stoichiometry N means the number of molecules, sites or subunits per partner or assembly.

Source of the values: paper PMC12624148.
